Results published in US20060067951A1 (GOVERNING COUNCIL OF THE UNIVERSITY OF TORONTO, published 2006).

T1: S. mutans ComD histidine kinase receptor (Streptococcus mutans)
T1 chain: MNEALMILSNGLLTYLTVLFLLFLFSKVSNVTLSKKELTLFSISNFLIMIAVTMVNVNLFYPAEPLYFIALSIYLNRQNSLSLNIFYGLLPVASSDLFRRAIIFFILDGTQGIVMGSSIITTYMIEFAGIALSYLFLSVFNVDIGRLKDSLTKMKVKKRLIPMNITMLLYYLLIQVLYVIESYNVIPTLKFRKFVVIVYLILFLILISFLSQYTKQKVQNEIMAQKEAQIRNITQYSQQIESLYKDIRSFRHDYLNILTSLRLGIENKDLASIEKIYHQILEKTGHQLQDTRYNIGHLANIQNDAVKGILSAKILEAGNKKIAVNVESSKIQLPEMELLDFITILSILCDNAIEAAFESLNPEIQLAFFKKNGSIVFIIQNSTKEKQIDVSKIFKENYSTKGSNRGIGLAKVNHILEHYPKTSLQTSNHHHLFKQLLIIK


Target: T1, S. mutans ComD histidine kinase receptor
Assay: cell-based or functional assay

Binder | Transformation efficiency (vs 5 µg CSP), 5 µg/ml peptide, S. mutans wild-type UA159 [fold decrease] | Transformation efficiency (vs no CSP), 5 µg/ml peptide, S. mutans wild-type UA159
SGSLSTFFRLFNASFTQALGK [CSP peptide analog E2] | 6 | 252 fold increase
SGSLSTFFRLFNRSFTQAGK [CSP peptide analog G1] | 2 | 848 fold increase
SGSSTFFRLFNRSFTQALGK [CSP peptide analog D1] | 6 | 275 fold increase
SGSLSTFFRLFNRSFTQALGA [CSP peptide analog G2] | 28 | 56 fold increase
SGSLSTFFRLFNRSFTQALGK [mature wild-type S. mutans competence stimulating peptide (CSP)] | – | 1550 fold increase
SGSLSTFFRLFNRSFTALGK [CSP peptide analog A2] | 7 | 125 fold increase
SGSLSTFFALFNRSFTQALGK [CSP peptide analog C2] | 48 | 32 fold increase
SGSLSTFFRLFNRSFTQALGV [CSP peptide analog F2] | 3 | 543 fold increase
SGSLSTFFRLFNRSFTQALK [CSP peptide analog F1] | 3 | 541 fold increase
SGSLTFFRLFNRSFTQALGK [CSP peptide analog E1] | 2 | 791 fold increase
SGSLSTFFRLFNVSFTQALGK [CSP peptide analog D2] | 16 | 99 fold increase
SGSLSTFFRLFNRSFTQLGK [CSP peptide analog H1] | 28000 | 18 fold decrease
SGTLSTFFRLFNRSFTQA [CSP peptide analog B3] | 8 | 195 fold increase
SGSLSTFFVLFNRSFTQALGK [CSP peptide analog B2] | 414 | 4 fold increase
